167 variants from the RNAGym collection of RNA variant scans (doi:10.7554/elife.80360) can be followed below.

B1: CPEB3 Ribozyme (parent)
chain: GGGGGCCACAGCAGAAGCGUUCACGUCGCGGCCCCUGUCAGAUUCUGGUGAAUCUGCGAAUUCUGCUGU

The variants in this data set derive from B1. Briefly: self-cleavage, relative activity (ratio to wild type); higher = more cleavage; co-transcriptional.
As for U20A A59C, the self-cleavage came out at 0.0876.

Take U20A A59G: the self-cleavage was found to be 0.125.

U20C U61A: the self-cleavage is 0.236.

In the case of U20C U61C, the self-cleavage was 0.182.

On to U20C G58C, for which the self-cleavage came out at 0.147.

For U20C G58A, the self-cleavage is 0.161.

U20C G58U: the self-cleavage was determined as 0.204.

On to U20C A59C, for which the self-cleavage was 0.124.

In the case of U20C A59U, the self-cleavage is 0.15.

With U20C A59G, the self-cleavage is 0.277.

Turning to U20C C39U, the self-cleavage was determined as 0.176.

Turning to U20C C39G, the self-cleavage stood at 0.201.

Regarding U20C C39A, the self-cleavage was determined as 0.224.

Turning to U20C G68A, the self-cleavage amounted to 0.336.

Consider G19U G56A, for which the self-cleavage came to 0.301.

Turning to G19U G56C, the self-cleavage is 0.222.

For U20A U69C, the self-cleavage was 0.225.

With U20A U69G, the self-cleavage amounted to 0.282.

Consider U20G C34U, for which the self-cleavage turned out to be 0.268.

Turning to U20G C34G, the self-cleavage was determined as 0.28.

For U20G C33G, the self-cleavage amounted to 0.261.

U20G C33A: the self-cleavage is 0.135.

Regarding U20A A23C, the self-cleavage was determined as 0.149.

Turning to U20G G48U, the self-cleavage is 0.141.

As for U20G G48A, the self-cleavage was determined as 0.127.

G19U G58A: the self-cleavage amounted to 0.352.

Consider G19U G58U, for which the self-cleavage is 0.553.

For the variant U20G C32A, the self-cleavage was found to be 0.218.

U20G C32U: the self-cleavage stood at 0.157.

With U20C U53C, the self-cleavage was found to be 0.161.

Take U20A G47A: the self-cleavage came to 0.176.

With U20C U69C, the self-cleavage is 0.427.

Turning to U20C U69A, the self-cleavage worked out at 0.124.

U20G C66U: the self-cleavage is 0.216.

Take U20G C22G: the self-cleavage was 0.192.

Consider U20G C22A, for which the self-cleavage stood at 0.249.

Regarding U20A U26G, the self-cleavage was found to be 0.182.

Take U20A U26C: the self-cleavage stood at 0.106.

On to U20C G37A, for which the self-cleavage turned out to be 0.102.

Consider U20C G37U, for which the self-cleavage is 0.114.

Turning to G19U U46A, the self-cleavage was found to be 0.591.

Take G19U U46G: the self-cleavage stood at 0.596.

As to G19U U46C, the self-cleavage is 0.499.

As for U20G G50A, the self-cleavage came to 0.206.

With U20G G50C, the self-cleavage is 0.246.

On to U20G G68C, for which the self-cleavage amounted to 0.275.

U20G G68A: the self-cleavage came to 0.235.

With U20C U38G, the self-cleavage was determined as 0.24.

Take U20C U38A: the self-cleavage turned out to be 0.181.

With U20C U38C, the self-cleavage is 0.212.

Regarding U20A C24A, the self-cleavage was found to be 0.203.

Take U20A C24U: the self-cleavage stood at 0.0896.

For the variant U20A U21C, the self-cleavage was 0.0963.

In the case of U20C G31A, the self-cleavage is 0.261.

As for U20C G31C, the self-cleavage was 0.148.

For U20C G31U, the self-cleavage is 0.204.

In the case of U20A U46A, the self-cleavage is 0.216.

Consider U20A U46C, for which the self-cleavage is 0.0817.

As for U20A U46G, the self-cleavage was 0.128.

U20A A40G: the self-cleavage turned out to be 0.11.

In the case of U20A G31U, the self-cleavage came out at 0.17.

Consider U20A G31C, for which the self-cleavage came out at 0.0954.

For U20A G31A, the self-cleavage is 0.135.

Regarding G19U U36G, the self-cleavage came to 0.222.

As to U20C U36A, the self-cleavage turned out to be 0.125.

Take U20C U49G: the self-cleavage stood at 0.231.

As to U20C U49C, the self-cleavage was determined as 0.214.

Consider U20C U49A, for which the self-cleavage turned out to be 0.137.

For the variant U20A G37C, the self-cleavage is 0.156.

Take U20A G37A: the self-cleavage was found to be 0.13.

U20G C27U: the self-cleavage amounted to 0.0848.

Regarding U20G G31C, the self-cleavage was 0.134.

Consider U20G G31A, for which the self-cleavage came to 0.155.

On to U20C U46A, for which the self-cleavage turned out to be 0.262.

For U20C U46C, the self-cleavage is 0.257.

With U20C U46G, the self-cleavage is 0.275.

Consider U20C G65A, for which the self-cleavage turned out to be 0.141.

On to U20G G41U, for which the self-cleavage was determined as 0.194.

For U20G G41A, the self-cleavage turned out to be 0.127.

For the variant U20G G41C, the self-cleavage came to 0.0984.

On to U20A C34U, for which the self-cleavage was 0.0989.

Regarding U20A C34A, the self-cleavage was 0.196.

Turning to U20A C34G, the self-cleavage was found to be 0.196.

Consider U20G G25A, for which the self-cleavage amounted to 0.129.

Turning to U20G G25U, the self-cleavage turned out to be 0.185.

Consider U20C U64C, for which the self-cleavage is 0.278.

For the variant U20C U64G, the self-cleavage was found to be 0.104.

For the variant U20C U64A, the self-cleavage stood at 0.167.

For U20C U62C, the self-cleavage came out at 0.204.

For U20C C22G, the self-cleavage came to 0.214.

Turning to U20C C22U, the self-cleavage was 0.229.

In the case of U20G C63U, the self-cleavage was found to be 0.246.

Consider U20G C63G, for which the self-cleavage is 0.21.

For U20C A52C, the self-cleavage was 0.181.

For the variant U20C A52U, the self-cleavage turned out to be 0.109.

Turning to U20A U64C, the self-cleavage was found to be 0.122.

On to U20A U64A, for which the self-cleavage was 0.326.

On to U20A U64G, for which the self-cleavage was 0.11.

Regarding U20C A40G, the self-cleavage was found to be 0.212.

U20A C63G: the self-cleavage came to 0.13.

With U20A C63A, the self-cleavage came out at 0.129.

As for U20C C32A, the self-cleavage was 0.192.

Consider U20A A60C, for which the self-cleavage stood at 0.114.

On to U20A A60G, for which the self-cleavage is 0.146.

For the variant U20G A59G, the self-cleavage came out at 0.204.

On to U20G A59U, for which the self-cleavage came out at 0.176.

On to U20G G58U, for which the self-cleavage worked out at 0.213.

In the case of U20G G58A, the self-cleavage was 0.251.

Regarding U20C A42G, the self-cleavage came out at 0.161.

For the variant U20C C27U, the self-cleavage was 0.114.

For U20C C27G, the self-cleavage turned out to be 0.136.

For U20A C27U, the self-cleavage turned out to be 0.149.

As to U20A C27G, the self-cleavage amounted to 0.152.

U20C U44A: the self-cleavage was found to be 0.185.

Take U20G C54U: the self-cleavage was 0.196.

With U20G C54A, the self-cleavage came out at 0.203.

On to U20G C54G, for which the self-cleavage amounted to 0.118.

U20A C29G: the self-cleavage is 0.157.

With U20A C29A, the self-cleavage is 0.194.

Consider U20A C29U, for which the self-cleavage was 0.155.

Turning to U20G C39A, the self-cleavage worked out at 0.169.

As to U20G C39U, the self-cleavage stood at 0.0993.

With U20G C39G, the self-cleavage was 0.23.

As to U20C G28A, the self-cleavage came to 0.117.

For U20C G28C, the self-cleavage was determined as 0.133.

For the variant G19U U69C, the self-cleavage amounted to 0.925.

Take G19U U69A: the self-cleavage turned out to be 0.739.

Take U20G A40U: the self-cleavage came to 0.134.

Turning to U20G A40C, the self-cleavage was found to be 0.243.

Consider U20G A40G, for which the self-cleavage was found to be 0.169.

With U20A C66A, the self-cleavage turned out to be 0.154.

Consider U20A C66G, for which the self-cleavage came to 0.133.

Take U20A C66U: the self-cleavage was 0.205.

On to U20C G48U, for which the self-cleavage is 0.242.

U20C G48A: the self-cleavage was determined as 0.189.

In the case of U20C U43C, the self-cleavage came to 0.212.

As to U20G U36C, the self-cleavage was 0.0978.

U20G U36A: the self-cleavage is 0.13.

For the variant U20C C29U, the self-cleavage was found to be 0.128.

In the case of U20C C29A, the self-cleavage was 0.227.

Regarding U20C C34U, the self-cleavage is 0.13.

Consider U20C C34A, for which the self-cleavage stood at 0.176.

With U20C C34G, the self-cleavage amounted to 0.139.

Regarding U20A G56C, the self-cleavage turned out to be 0.113.

On to U20A G56U, for which the self-cleavage is 0.217.

U20A G56A: the self-cleavage was 0.184.

For the variant U20G A42C, the self-cleavage stood at 0.279.

Consider U20G A42G, for which the self-cleavage was determined as 0.079.

As to U20G A42U, the self-cleavage amounted to 0.216.

For U20G, the self-cleavage is 0.207.

As for U20C, the self-cleavage amounted to 0.222.

Take U20A: the self-cleavage is 0.157.

In the case of G19U U67C, the self-cleavage is 0.461.

As to G19U U67G, the self-cleavage turned out to be 0.546.

As to G19U U67A, the self-cleavage came to 0.479.

Consider U20A G68A, for which the self-cleavage was 0.196.

In the case of U20A G68U, the self-cleavage was 0.142.

U20A G68C: the self-cleavage was found to be 0.253.

In the case of G19U U49C, the self-cleavage amounted to 0.594.

G19U U49G: the self-cleavage turned out to be 0.459.

With U20G A23U, the self-cleavage was 0.243.

On to U20G A23G, for which the self-cleavage is 0.32.

With U20G A23C, the self-cleavage is 0.196.

On to U20A U53G, for which the self-cleavage was 0.136.

U20A U53A: the self-cleavage was determined as 0.0892.

Take U20A U53C: the self-cleavage turned out to be 0.154.

Consider U20G C57U, for which the self-cleavage is 0.143.
